The results in this text go back to patent US20220088118A1 (Bicycle, published 2022).

Numbered stars: 1 amine (or outer) side, 2 acyl side, 3 side chain; on linkers, the order of the positions; unused ones are H or OH. Bridge positions count the residues as written; N and C are the ends. Ends that are not written are not given here. TATA = O=C(CC[*:1])N1CN(C(=O)CC[*:2])CN(C(=O)CC[*:3])C1

The target in assay [1] is T1, human carbonic anhydrase IX (human, UniProt Q16790 38-414). In words: competition fluorescence polarisation, fluorescent ligand (SEQ ID NO: 18)-Sar6-K(FI).
The target of assay [2] is T1, human carbonic anhydrase IX. In words: cell-based or functional assay.

In turn, ACANNCIWVDGWVCA (linker 2-6-14 via TATA) [61-30-03-N001] yielded an inhibitory constant (Ki) in assay [1] of 158 nM.

Molecule ACLSHCLWVDGWVCA (linker 2-6-14 via TATA) [61-31-00-N001] gave a Ki in assay [1] of 326 nM.

In assay [1], ACGRCTWVDGWICA (linker 2-5-13 via TATA) [61-27-00-N001] gave an inhibition constant (Ki) of 1610 nM.

In assay [1], ACTETCIWVDGWVCA (linker 2-6-14 via TATA) [61-30-02-N001] gave a Ki of 193 nM.

ACHAHCLWVDGWVCA (linker 2-6-14 via TATA) [61-30-00-N001] yielded a Ki in assay [1] of 103 nM.

In turn, ACGACTWADGWVCA (linker 2-5-13 via TATA) [61-25-00-N001] displayed an inhibition constant Ki in assay [1] of 2280 nM.

Take ACVDCVWVDGWVCA (linker 2-5-13 via TATA) [61-25-03-N001]: the affinity in assay [1] corresponds to a Ki of 70.5 nM. This Ki lies about 32-fold lower than the previous one.

As to ACGDCIWVDGWVCA (linker 2-5-13 via TATA) [61-25-01-N001], in assay [2], the “Enzyme IC50” value amounted to 939 nM. This molecule also returned a Ki in assay [1] of 26.5 nM.

For the molecule ACGLCIWVDGWVCA (linker 2-5-13 via TATA) [61-26-00-N001], the Ki in assay [1] was 51 nM.

On to ACRDCIWVDGWVCA (linker 2-5-13 via TATA) [61-25-02-N001], for which the Ki in assay [1] amounted to 30 nM.

ACTDCIWVDGWMCA (linker 2-5-13 via TATA) [61-28-00-N001] came in with a Ki in assay [1] of 442 nM.

For ACVECWADGWVNCA (linker 2-5-13 via TATA) [61-29-00-N001], in assay [1], the inhibition constant Ki came out at 129 nM.

Take ACSSECIWVDGWVCA (linker 2-6-14 via TATA) [61-30-01-N001]: the “Enzyme IC50” value in assay [2] stood at 1330 nM. The inhibition constant (Ki) in assay [1] was found to be 99.5 nM.
